Results published in patent US20040053278A1.

Columns and labels:
[1] = molecular target: constitutively active (TD) TβR-I (UniProt P36897); assay: cell-based or functional assay
[2] = molecular target: constitutively active BMPR-IB; assay: cell-based or functional assay

constitutively active (TD) TβR-I, sequence (P36897 34-503 T204D limits assumed): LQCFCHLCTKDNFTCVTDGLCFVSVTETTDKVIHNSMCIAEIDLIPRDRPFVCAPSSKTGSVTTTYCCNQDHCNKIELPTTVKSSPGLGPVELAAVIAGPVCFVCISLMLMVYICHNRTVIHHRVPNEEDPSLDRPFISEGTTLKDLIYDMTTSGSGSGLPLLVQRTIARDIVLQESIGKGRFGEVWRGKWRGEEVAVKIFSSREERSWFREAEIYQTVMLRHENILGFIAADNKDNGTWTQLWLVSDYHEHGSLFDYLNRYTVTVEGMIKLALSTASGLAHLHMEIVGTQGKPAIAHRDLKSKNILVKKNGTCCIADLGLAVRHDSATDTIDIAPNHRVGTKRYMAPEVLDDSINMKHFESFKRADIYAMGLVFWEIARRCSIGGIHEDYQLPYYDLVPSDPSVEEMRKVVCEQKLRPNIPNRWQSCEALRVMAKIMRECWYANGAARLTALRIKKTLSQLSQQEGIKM

For Myc-Smad6 (from UniProt O35182 1-495), the Phosphorylation of Smad2 induced by constitutively active TβR-I ([32P]orthophosphate labeling, immunoprecipitation) [1] was 39 % reduction and the Smad1 phosphorylation induced by constitutively active BMPR-IB [2] was 60 % reduction.
